Measured values reported in patent publication US20060073576A1.

Target: gp120 (strain not stated)
Experiment: competitive ELISA

In the case of “CD4M8 (double mutant of CD4M3: Gln20Ala, Thr25Ala) (designed binder)”, the fold increase in binding affinity over CD4M3 is reported as > 10 fold.
